Assay results reported in patent USRE44022 (COMMISSARIAT A L ENERGIE ATOMIQUE, dated 2013).
Square brackets hold non-standard residues; d marks the D form.

B1: P24 (peptide)
peptide: GRIKPH
modifications: cyclic (cyclo, ends of the linear peptide coupled)
notes: Cyclopeptide; also called cyclo(Gly-Arg-Ile-Lys-Pro-His)
B2: P16 (peptide)
peptide: RIKPHQG
modifications: cyclic (cyclo, ends of the linear peptide coupled)
notes: Cyclopeptide; also called cyclo(Arg-Ile-Lys-Pro-His-Gln-Gly)
B3: P23 (peptide)
peptide: cyclo([dY]PRIKPHQ)
SMILES: CC[C@H](C)[C@@H]1NC(=O)[C@H](CCCNC(=N)N)NC(=O)[C@@H]2CCCN2C(=O)[C@@H](Cc2ccc(O)cc2)NC(=O)[C@H](CCC(N)=O)NC(=O)[C@H](Cc2c[nH]cn2)NC(=O)[C@@H]2CCCN2C(=O)[C@H](CCCCN)NC1=O
B4: P11 (peptide)
peptide: cyclo([dF]PQIMRIKPHQGQHIGE)
SMILES: CC[C@H](C)[C@@H]1NC(=O)[C@H](Cc2c[nH]cn2)NC(=O)[C@H](CCC(N)=O)NC(=O)CNC(=O)[C@H](CCC(N)=O)NC(=O)[C@H](Cc2c[nH]cn2)NC(=O)[C@@H]2CCCN2C(=O)[C@H](CCCCN)NC(=O)[C@H]([C@@H](C)CC)NC(=O)[C@H](CCCNC(=N)N)NC(=O)[C@H](CCSC)NC(=O)[C@H]([C@@H](C)CC)NC(=O)[C@H](CCC(N)=O)NC(=O)[C@@H]2CCCN2C(=O)[C@@H](Cc2ccccc2)NC(=O)[C@H](CCC(=O)O)NC(=O)CNC1=O
notes: Cyclopeptide; 6); also called P11 (cyclic) peptide
B5: P21 (peptide)
peptide: cyclo([dF]PIMRIKPHQGQHI)
SMILES: CC[C@H](C)[C@@H]1NC(=O)[C@H](CCCNC(=N)N)NC(=O)[C@H](CCSC)NC(=O)[C@H]([C@@H](C)CC)NC(=O)[C@@H]2CCCN2C(=O)[C@@H](Cc2ccccc2)NC(=O)[C@H]([C@@H](C)CC)NC(=O)[C@H](Cc2c[nH]cn2)NC(=O)[C@H](CCC(N)=O)NC(=O)CNC(=O)[C@H](CCC(N)=O)NC(=O)[C@H](Cc2c[nH]cn2)NC(=O)[C@@H]2CCCN2C(=O)[C@H](CCCCN)NC1=O
notes: Cyclopeptide
B6: P20 (peptide)
peptide: cyclo([dF]PQIMRIKPHQGQHIG)
SMILES: CC[C@H](C)[C@@H]1NC(=O)[C@H](Cc2c[nH]cn2)NC(=O)[C@H](CCC(N)=O)NC(=O)CNC(=O)[C@H](CCC(N)=O)NC(=O)[C@H](Cc2c[nH]cn2)NC(=O)[C@@H]2CCCN2C(=O)[C@H](CCCCN)NC(=O)[C@H]([C@@H](C)CC)NC(=O)[C@H](CCCNC(=N)N)NC(=O)[C@H](CCSC)NC(=O)[C@H]([C@@H](C)CC)NC(=O)[C@H](CCC(N)=O)NC(=O)[C@@H]2CCCN2C(=O)[C@@H](Cc2ccccc2)NC(=O)CNC1=O
notes: Cyclopeptide

Assays:
[1] = target: T1, KDR receptor (VEGFR-2) (UniProt P35968 20-1356, limits assumed); experiment: displacement of 125I-VEGF from CHOm VEGFR2 cells
T1 construct: whole, on cells; also called kinase domain receptor; VEGF receptor
T1 sequence (P35968 20-1356 limits assumed): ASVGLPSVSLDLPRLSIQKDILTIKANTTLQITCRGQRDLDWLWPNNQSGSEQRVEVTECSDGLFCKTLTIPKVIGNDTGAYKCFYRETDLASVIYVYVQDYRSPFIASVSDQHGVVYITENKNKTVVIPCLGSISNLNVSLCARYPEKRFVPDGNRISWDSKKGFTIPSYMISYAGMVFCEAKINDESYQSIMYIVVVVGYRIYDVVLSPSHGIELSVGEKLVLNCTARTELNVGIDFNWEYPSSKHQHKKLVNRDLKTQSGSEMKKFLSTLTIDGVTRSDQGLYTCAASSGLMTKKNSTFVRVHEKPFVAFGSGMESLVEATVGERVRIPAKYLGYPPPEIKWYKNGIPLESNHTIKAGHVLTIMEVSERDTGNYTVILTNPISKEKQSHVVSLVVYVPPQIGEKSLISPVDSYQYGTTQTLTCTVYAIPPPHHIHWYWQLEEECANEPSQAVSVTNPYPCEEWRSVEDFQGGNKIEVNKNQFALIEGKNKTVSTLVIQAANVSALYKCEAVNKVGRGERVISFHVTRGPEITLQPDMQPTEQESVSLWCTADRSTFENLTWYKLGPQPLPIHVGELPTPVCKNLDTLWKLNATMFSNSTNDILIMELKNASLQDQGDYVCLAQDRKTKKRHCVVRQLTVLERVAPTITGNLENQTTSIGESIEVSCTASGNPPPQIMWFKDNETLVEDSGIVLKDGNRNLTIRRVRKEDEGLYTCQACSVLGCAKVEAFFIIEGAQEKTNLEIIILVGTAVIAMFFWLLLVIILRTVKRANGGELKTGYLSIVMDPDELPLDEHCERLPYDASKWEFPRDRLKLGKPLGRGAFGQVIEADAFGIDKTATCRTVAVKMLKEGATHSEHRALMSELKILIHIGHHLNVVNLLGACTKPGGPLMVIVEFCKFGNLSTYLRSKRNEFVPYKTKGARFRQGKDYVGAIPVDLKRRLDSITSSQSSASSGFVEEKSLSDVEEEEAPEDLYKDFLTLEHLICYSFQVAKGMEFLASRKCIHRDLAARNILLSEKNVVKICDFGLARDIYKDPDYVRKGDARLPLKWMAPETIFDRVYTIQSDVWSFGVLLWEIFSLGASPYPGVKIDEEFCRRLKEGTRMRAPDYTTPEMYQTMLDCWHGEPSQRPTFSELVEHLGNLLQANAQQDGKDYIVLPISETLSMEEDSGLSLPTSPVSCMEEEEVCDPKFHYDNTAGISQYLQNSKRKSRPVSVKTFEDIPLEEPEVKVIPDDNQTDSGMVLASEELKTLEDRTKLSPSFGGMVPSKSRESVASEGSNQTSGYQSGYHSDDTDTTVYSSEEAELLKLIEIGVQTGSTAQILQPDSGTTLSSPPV

[2] = target: KDR receptor (VEGFR-2) (UniProt P35968); experiment: displacement of 125I-VEGF from CHOm VEGFR2 cells
KDR receptor (VEGFR-2) (UniProt P35968), sequence (P35968 20-1356 limits assumed): as above

[3] = target: T1, KDR receptor (VEGFR-2); experiment: cell-based or functional assay

Binder | IC50 [1] [µM] | also measured
B1 | 8 | 
B2 | 32 | 
B3 |  | IC50 [2]: 8 µM
GQIMRIKPHQGQHIGE (cyclic (cyclo, ends of the linear peptide coupled), Cyclopeptide) [P12] | 300 | 
B4 | 2 | Migration (IC50) [3]: 30 µM; Proliferation (IC50) [3]: 7 µM
B5 | 200 | 
QIMRIKPHQGQHIGE (cyclic (cyclo, cyclised on the solid phase, method B), Cyclopeptide) [P19] | 5 | 
PRIKPHQGQH (cyclic (cyclo, ends of the linear peptide coupled), Cyclopeptide) [P9] | 300 | 
PRIKPHQG (cyclic (cyclo, ends of the linear peptide coupled), Cyclopeptide) [P17] | 10 | 
GRIKPHQGH (cyclic (cyclo, ends of the linear peptide coupled), Cyclopeptide) [P8] | 200 | 
B6 | 10 | 
